The values that follow come from PMC11249618, “Presenilin2 D439A Mutation Induces Dysfunction of Mitochondrial Fusion/Fission Dynamics and Abnormal Regulation of GTPase Activity” (Molecular Neurobiology, 2023).

The test concerns the target T1, His-Miro2(220–592) (UniProt Q8IXI1 220-592).
T1 construct: Mitochondrial Rho GTPase 2 (Miro2), amino acids 220–592, in pET-32a; source: E. coli BL21, purified
Put plainly: pull-down; GST pull-down of recombinant GST-PS2 fragments with recombinant His-Miro2 fragments; bound material eluted with SDS sample buffer, SDS-PAGE and Western blot (Fig. 5C, D). To be noted: both partners purified. For orientation: A western blot detects proteins with antibodies after separation by electrophoresis.

T1 sequence (Q8IXI1 220-592): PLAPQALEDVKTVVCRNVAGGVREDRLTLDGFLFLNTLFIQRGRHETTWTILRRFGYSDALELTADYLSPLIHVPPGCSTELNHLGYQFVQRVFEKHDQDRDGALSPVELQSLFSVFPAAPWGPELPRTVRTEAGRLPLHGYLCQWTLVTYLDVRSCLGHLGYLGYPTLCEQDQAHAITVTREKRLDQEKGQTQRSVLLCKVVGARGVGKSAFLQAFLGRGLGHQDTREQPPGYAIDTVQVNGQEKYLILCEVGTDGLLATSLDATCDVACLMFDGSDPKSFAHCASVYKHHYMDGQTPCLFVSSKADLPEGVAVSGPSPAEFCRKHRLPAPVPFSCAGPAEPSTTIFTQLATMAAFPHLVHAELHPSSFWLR

B1: GST-PS2(271–361) (domain or fragment)
chain: not shown
notes: source: E. coli BL21, purified
For the molecule B1, the binding result is recorded as “binds”.
